# B1: mRNA-decapping enzyme 1A (Homo sapiens), Q9NPI6 (parent)
# chain: MEALSRAGQEMSLAALKQHDPYITSIADLTGQVALYTFCPKANQWEKTDIEGTLFVYRRSASPYHGFTIVNRLNMHNLVEPVNKDLEFQLHEPFLLYRNASLSIYSIWFYDKNDCHRIAKLMADVVEEETRRSQQAARDKQSPSQANGCSDHRPIDILEMLSRAKDEYERNQMGDSNISSPGLQPSTQLSNLGSTETLEEMPSGSQDKSAPSGHKHLTVEELFGTSLPKEQPAVVGLDSEEMERLPGDASQKEPNSFLPFPFEQLGGAPQSETLGVPSAAHHSVQPEITTPVLITPASITQSNEKHAPTYTIPLSPVLSPTLPAEAPTAQVPPSLPRNSTMMQAVKTTPRQRSPLLNQPVPELSHASLIANQSPFRAPLNVTNTAGTSLPSVDLLQKLRLTPQHDQIQTQPLGKGAMVASFSPAAGQLATPESFIEPPSKTAAARVAASASLSNMVLAPLQSMQQNQDPEVFVQPKVLSSAIPVAGAPLVTATTTAVSSVLLAPSVFQQTVTRSSDLERKASSPSPLTIGTPESQRKPSIILSKSQLQDTLIHLIKNDSSFLSTLHEVYLQVLTKNKDNHNL
# B2: Proline-rich nuclear receptor coactivator 2 (Homo sapiens), Q9NPJ4-1 (parent)
# chain: MGGGERYNIPAPQSRNVSKNQQQLNRQKTKEQNSQMKIVHKKKERGHGYNSSAAAWQAMQNGGKNKNFPNNQSWNSSLSGPRLLFKSQANQNYAGAKFSEPPSPSVLPKPPSHWVPVSFNPSDKEIMTFQLKTLLKVQV
# partner: B1 chain
# Variants of: B1
# Conditions: with PNRC2, Q9NPJ4-1
row,effect of a mutation on the interaction,Variant
1,decreasing interaction strength,MEALSRAGQEMSLAALKQHDPYITSIADLTGQVALYTFCPKANQAEKTDIEGTLFVYRRSASPYHGFTIVNRLNMHNLVEPVNKDLEFQLHEPFLLYRNASLSIYSIWFYDKNDCHRIAKLMADVVEEETRRSQQAARDKQSPSQANGCSDHRPIDILEMLSRAKDEYERNQMGDSNISSPGLQPSTQLSNLGSTETLEEMPSGSQDKSAPSGHKHLTVEELFGTSLPKEQPAVVGLDSEEMERLPGDASQKEPNSFLPFPFEQLGGAPQSETLGVPSAAHHSVQPEITTPVLITPASITQSNEKHAPTYTIPLSPVLSPTLPAEAPTAQVPPSLPRNSTMMQAVKTTPRQRSPLLNQPVPELSHASLIANQSPFRAPLNVTNTAGTSLPSVDLLQKLRLTPQHDQIQTQPLGKGAMVASFSPAAGQLATPESFIEPPSKTAAARVAASASLSNMVLAPLQSMQQNQDPEVFVQPKVLSSAIPVAGAPLVTATTTAVSSVLLAPSVFQQTVTRSSDLERKASSPSPLTIGTPESQRKPSIILSKSQLQDTLIHLIKNDSSFLSTLHEVYLQVLTKNKDNHNL [W45A]
2,decreasing interaction strength,MEALSRAGQEMSLAALKQHDPYITSIADLTGQVALYTFCPKANQWEKTDIEGTLFVYRRSASPYHGFTIVNRLNMHNLVEPVNKDLEFQLHEPFLLYANASLSIYSIWFYDKNDCHRIAKLMADVVEEETRRSQQAARDKQSPSQANGCSDHRPIDILEMLSRAKDEYERNQMGDSNISSPGLQPSTQLSNLGSTETLEEMPSGSQDKSAPSGHKHLTVEELFGTSLPKEQPAVVGLDSEEMERLPGDASQKEPNSFLPFPFEQLGGAPQSETLGVPSAAHHSVQPEITTPVLITPASITQSNEKHAPTYTIPLSPVLSPTLPAEAPTAQVPPSLPRNSTMMQAVKTTPRQRSPLLNQPVPELSHASLIANQSPFRAPLNVTNTAGTSLPSVDLLQKLRLTPQHDQIQTQPLGKGAMVASFSPAAGQLATPESFIEPPSKTAAARVAASASLSNMVLAPLQSMQQNQDPEVFVQPKVLSSAIPVAGAPLVTATTTAVSSVLLAPSVFQQTVTRSSDLERKASSPSPLTIGTPESQRKPSIILSKSQLQDTLIHLIKNDSSFLSTLHEVYLQVLTKNKDNHNL [R98A]
3,decreasing interaction strength,MEALSRAGQEMSLAALKQHDPYITSIADLTGQVALYTFCPKANQWEKTDIEGTLFVYRRSASPYHGFTIVNRLNMHNLVEPVNKDLEFQLHEPALLYRNASLSIYSIWFYDKNDCHRIAKLMADVVEEETRRSQQAARDKQSPSQANGCSDHRPIDILEMLSRAKDEYERNQMGDSNISSPGLQPSTQLSNLGSTETLEEMPSGSQDKSAPSGHKHLTVEELFGTSLPKEQPAVVGLDSEEMERLPGDASQKEPNSFLPFPFEQLGGAPQSETLGVPSAAHHSVQPEITTPVLITPASITQSNEKHAPTYTIPLSPVLSPTLPAEAPTAQVPPSLPRNSTMMQAVKTTPRQRSPLLNQPVPELSHASLIANQSPFRAPLNVTNTAGTSLPSVDLLQKLRLTPQHDQIQTQPLGKGAMVASFSPAAGQLATPESFIEPPSKTAAARVAASASLSNMVLAPLQSMQQNQDPEVFVQPKVLSSAIPVAGAPLVTATTTAVSSVLLAPSVFQQTVTRSSDLERKASSPSPLTIGTPESQRKPSIILSKSQLQDTLIHLIKNDSSFLSTLHEVYLQVLTKNKDNHNL [F94A]
4,disrupting interaction strength,MEALSRAGQEMSLAALKQHDPYITSIADLTGQVALYTFCPKANQWEKTDIEGTLFVYRRSASPYHGFTIVNRLNMHNLVEPVNKDLEFQLHEPFLAYRNASLSIYSIWFYDKNDCHRIAKLMADVVEEETRRSQQAARDKQSPSQANGCSDHRPIDILEMLSRAKDEYERNQMGDSNISSPGLQPSTQLSNLGSTETLEEMPSGSQDKSAPSGHKHLTVEELFGTSLPKEQPAVVGLDSEEMERLPGDASQKEPNSFLPFPFEQLGGAPQSETLGVPSAAHHSVQPEITTPVLITPASITQSNEKHAPTYTIPLSPVLSPTLPAEAPTAQVPPSLPRNSTMMQAVKTTPRQRSPLLNQPVPELSHASLIANQSPFRAPLNVTNTAGTSLPSVDLLQKLRLTPQHDQIQTQPLGKGAMVASFSPAAGQLATPESFIEPPSKTAAARVAASASLSNMVLAPLQSMQQNQDPEVFVQPKVLSSAIPVAGAPLVTATTTAVSSVLLAPSVFQQTVTRSSDLERKASSPSPLTIGTPESQRKPSIILSKSQLQDTLIHLIKNDSSFLSTLHEVYLQVLTKNKDNHNL [L96A]
5,decreasing interaction strength,MEALSRAGQEMSLAALKQHDPYITSIADLTGQVALATFCPKANQWEKTDIEGTLFVYRRSASPYHGFTIVNRLNMHNLVEPVNKDLEFQLHEPFLLYRNASLSIYSIWFYDKNDCHRIAKLMADVVEEETRRSQQAARDKQSPSQANGCSDHRPIDILEMLSRAKDEYERNQMGDSNISSPGLQPSTQLSNLGSTETLEEMPSGSQDKSAPSGHKHLTVEELFGTSLPKEQPAVVGLDSEEMERLPGDASQKEPNSFLPFPFEQLGGAPQSETLGVPSAAHHSVQPEITTPVLITPASITQSNEKHAPTYTIPLSPVLSPTLPAEAPTAQVPPSLPRNSTMMQAVKTTPRQRSPLLNQPVPELSHASLIANQSPFRAPLNVTNTAGTSLPSVDLLQKLRLTPQHDQIQTQPLGKGAMVASFSPAAGQLATPESFIEPPSKTAAARVAASASLSNMVLAPLQSMQQNQDPEVFVQPKVLSSAIPVAGAPLVTATTTAVSSVLLAPSVFQQTVTRSSDLERKASSPSPLTIGTPESQRKPSIILSKSQLQDTLIHLIKNDSSFLSTLHEVYLQVLTKNKDNHNL [Y36A]

# Variants of: B2
# Conditions: with dcp1a_human DCP1A
row,effect of a mutation on the interaction,Variant
1,decreasing interaction strength,P108A
2,disrupting interaction strength,W114A
3,disrupting interaction strength,K109A

# From IntAct's records for PubMed 23085078
